{
  "source": "patent US20250057951A1",
  "about": "“DISCERNIBLE CELL SURFACE PROTEIN VARIANTS OF CD117 FOR USE IN CELL THERAPY” (UNIVERSITÄT BASEL, priority 2021, published 2025)",
  "molecules": {"B1": {"name": "S123V: variant of human CD117 with substitution S123V (protein)", "chain": "QPSVSPGEPSPPSIHPGKSDLIVRVGDEIRLLCTDPGFVKWTFEILDETNENKQNEWITEKAEATNTGKYTCTNKHGLSNSIYVFVRDPAKLFLVDRVLYGKEDNDTLVRCPLTDPEVTNYSLKGCQGKPLPKDLRFIPDPKAGIMIKSVKRAYHRLCLHCSVDQEGKSVLSEKFILKVRPAFKAVPVVSVSKASYLLREGEEFTVTCTIKDVSSSVYSTWKRENSQTKLQEKYNSWHHGDFNYERQATLTISSARVNDSGVFMCYANNTFGSANVTTTLEVVDKG"}, "B2": {"name": "Y259G (receptor)", "extracellular domains 1, 2 and 3": "QPSVSPGEPSPPSIHPGKSDLIVRVGDEIRLLCTDPGFVKWTFEILDETNENKQNEWITEKAEATNTGKYTCTNKHGLSNSIYVFVRDPAKLFLVDRSLYGKEDNDTLVRCPLTDPEVTNYSLKGCQGKPLPKDLRFIPDPKAGIMIKSVKRAYHRLCLHCSVDQEGKSVLSEKFILKVRPAFKAVPVVSVSKASYLLREGEEFTVTCTIKDVSSSVYSTWKRENSQTKLQEKGNSWHHGDFNYERQATLTISSARVNDSGVFMCYANNTFGSANVTTTLEVVD", "notes": "not in the list MOLECULES; also called human CD117 D1-2-3 variant Y259G"}, "B3": {"name": "S261E: variant of human CD117 with substitution S261E (protein)", "chain": "B1 chain with V98S, S236E"}, "B4": {"name": "Y259A: variant of human CD117 with substitution Y259A (protein)", "chain": "B1 chain with V98S, Y234A"}, "B5": {"name": "Y259P: variant of human CD117 with substitution Y259P (protein)", "chain": "B1 chain with V98S, Y234P"}, "B6": {"name": "S261Q: variant of human CD117 with substitution S261Q (protein)", "chain": "B1 chain with V98S, S236Q"}, "B7": {"name": "K127L: variant of human CD117 with substitution K127L (protein)", "chain": "B1 chain with V98S, K102L"}, "B8": {"name": "Y259E: variant of human CD117 with substitution Y259E (protein)", "chain": "B1 chain with V98S, Y234E"}},
  "note": "Substitutions are numbered along the chain they refer to. Numbers in names are those of the source. Entries after “also recorded” stand apart in the source; their conditions may differ.",
  "data": [
    {"test_system": "antibody Refmab #1", "experiment": "Octet screen: binding of CD117 D1-2-3 variants to captured Refmab #1", "conditions": "nm shift at end of association, top analyte concentration (500 nM)", "protocol": "(§1) A more sophisticated analysis of binding to the elected variants was performed with antibody Refmab #1. Binding of Refmab #1 to wt and variants (analyte) was measured in an Octet system RED96e or R8 at 25° C. with shaking at 1,000 rpm using 1× kinetic buffer (Sartorius, PN: 18-1105). First, the elected variants were screened for their ability to bind Refmab #1 using three different concentrations of analytes. Antibody Refmab #1 was captured by Anti-Human Fc capture biosensor (AHC) (Sartorius, PN: 18-5060) for 300 s at 0.5 to 1 μg/mL. As an analyte, human CD117 wt and variants, containing only domains 1, 2 and 3 (CD117 D1-2-3), was titrated at 500 nM, 50 nM and 5 nM. Association and dissociation of the analyte to Refmab #1 was monitored for 300 s and 900 s, respectively. Reference subtraction was performed against buffer only wells. AHC tips were regenerated using 10 mM Gly-HCl pH 1.7. Data were analyzed using the Octet Data Analysis software HT 12.0. Data were fitted (when possible) to a 1:1 binding model. Kinetic rates ka and […] globally fitted. Binding level of the elected variants were compared to wild type and are shown as percent in FIG. 7. For this qualitative analysis, the binding level of the top analyte concentration at end of the association step was used.", "values": [
      {"molecule": "B1", "binding to Refmab #1 compared to wild type": "strong decrease in binding"}
    ]},
    {"molecular_target": "T1, Biotinylated Avitag-hSCF (human, UniProt P21583 26-190, limits assumed, biotinylated Avitag)", "T1 construct": "Bought reagent; also called hSCF (Acros Biosystems SCF-H82E1)", "experiment": "BLI (Octet), steady state: biotinylated SCF on streptavidin biosensor, CD117 D1-2-3 variant as analyte; KD relative to WT", "conditions": "not given", "values": [
      {"molecule": "B2", "binding result": "binds"}
    ]},
    {"test_system": "Refmab #3", "experiment": "Octet: binding of CD117 variants to Refmab #3", "conditions": "qualitative Octet analysis", "protocol": "as §1\nA similar experiment to that in Example 7 was performed, but utilizing Refmab's #2 and #3.", "values": [
      {"molecule": "B2", "binding to Refmab #3 compared to wild type CD117": "strong decrease in binding"},
      {"molecule": "B3", "binding to Refmab #3 compared to wild type CD117": "complete loss of binding"},
      {"molecule": "B4", "binding to Refmab #3 compared to wild type CD117": "strong decrease in binding"},
      {"molecule": "B5", "binding to Refmab #3 compared to wild type CD117": "strong decrease in binding"},
      {"molecule": "B6", "binding to Refmab #3 compared to wild type CD117": "complete loss of binding"}
    ]},
    {"test_system": "CD117", "experiment": "Gene editing of CD117 in TF-1 cells, loss of SR-1 binding by FACS", "assay_type": "cell-based, human", "conditions": "FACS 7 days after electroporation with Cas9, crRNA/tracrRNA or sgRNA and HDR template", "protocol": "Gene editing of CD117 was performed in TF-1 cells using HDR. 12 different crRNAs were tested, six of them targeting amino acid residue E73 (Table 3), and six of them targeting amino acid residues 120-123 (Table 3).\nBinding of antibody SR-1 to TF-1 cells was measured by FACS 7 days after electroporation with Cas9 protein, crRNA/tracrRNA or sgRNA and HDR template (Table 4).", "units": {"KnockOut Efficiency (loss of binding of SR-1 compared to wild type cells)": "%"}, "values": [
      {"molecule": "KIT_120_123_2: crRNA CTTCTTTCCCATACAAGGAG, SEQ ID NO: 10, targets residues 120-123 of CD117 (chemistry not given here)", "KnockOut Efficiency (loss of binding of SR-1 compared to wild type cells)": 63.1},
      {"molecule": "KIT_120_123_3: crRNA TTGTTGACCGCTCCTTGTAT, SEQ ID NO: 11, targets residues 120-123 of CD117 (chemistry not given here)", "KnockOut Efficiency (loss of binding of SR-1 compared to wild type cells)": 71.2},
      {"molecule": "KIT_120_123_4: crRNA CTTGTTGACCGCTCCTTGTA, SEQ ID NO: 12, targets residues 120-123 of CD117 (chemistry not given here)", "KnockOut Efficiency (loss of binding of SR-1 compared to wild type cells)": 60.0},
      {"molecule": "KIT_120_123_5: crRNA CATACAAGGAGCGGTCAACA, SEQ ID NO: 13, targets residues 120-123 of CD117 (chemistry not given here)", "KnockOut Efficiency (loss of binding of SR-1 compared to wild type cells)": 53.8},
      {"molecule": "KIT_120_123_6: crRNA GCGGTCAACAAGGAAAAGCT, SEQ ID NO: 14, targets residues 120-123 of CD117 (chemistry not given here)", "KnockOut Efficiency (loss of binding of SR-1 compared to wild type cells)": 60.6},
      {"molecule": "KIT_E73_1: crRNA CTGATCCGGGCTTTGTCAAA, SEQ ID NO: 3, targets E73 of CD117 (chemistry not given here)", "KnockOut Efficiency (loss of binding of SR-1 compared to wild type cells)": 10.8},
      {"molecule": "KIT_E73_2: crRNA AAAGTCCATTTGACAAAGCC, SEQ ID NO: 4, targets E73 of CD117 (chemistry not given here)", "KnockOut Efficiency (loss of binding of SR-1 compared to wild type cells)": 25.7},
      {"molecule": "KIT_E73_3: crRNA CAAATGGACTTTTGAGATCC, SEQ ID NO: 5, targets E73 of CD117 (chemistry not given here)", "KnockOut Efficiency (loss of binding of SR-1 compared to wild type cells)": 37.2},
      {"molecule": "KIT_E73_4: crRNA TATTCTCATTCGTTTCATCC, SEQ ID NO: 6, targets E73 of CD117 (chemistry not given here)", "KnockOut Efficiency (loss of binding of SR-1 compared to wild type cells)": 60.1},
      {"molecule": "KIT_E73_5: crRNA ATGAGAATAAGCAGAATGAA, SEQ ID NO: 7, targets E73 of CD117 (chemistry not given here)", "KnockOut Efficiency (loss of binding of SR-1 compared to wild type cells)": 68.5},
      {"molecule": "KIT_E73_6: crRNA TAAGCAGAATGAATGGATCA, SEQ ID NO: 8, targets E73 of CD117 (chemistry not given here)", "KnockOut Efficiency (loss of binding of SR-1 compared to wild type cells)": 60.5}
    ]},
    {"molecular_target": "T2, SCF (Homo sapiens, UniProt P21583)", "T2 construct": "purchased Acros Biosystems SCF-H82E1", "experiment": "Octet: binding of CD117 D1-2-3 variants to SCF", "conditions": "CD117 D1-2-3 constructs", "protocol": "(§2) SCF binding is one function of CD117. SCF binding is important for the transmission of functional signals by CD117. Binding of the elected variants to SCF was measured on an Octet system RED96e or R8 at 25° C. with shaking at 1000 rpm using 1× Kinetic Buffer (Sartorius, PN: 18-1105). […] Domain 1, 2, 3 comprise the binding site for SCF. Domains 4 and 5 were used as a negative, non-binding control.\n(§3) CD117 D1-2-3 wt and variants thereof are titrated with different concentrations from 1000 to 5 nM. Association was monitored for 300 s and dissociation for 600 s. Binding to human CD117 domain 4 and 5 (CD117 D4-5) was performed under the same conditions as non-binding control. Reference subtraction was performed against buffer only wells. Biosensors were not regenerated and a new set of SA biosensors was used for each analyte. Data were analyzed using the Octet Data Analysis software HT 12.0. Steady state data analysis was performed due to the fast on/off nature of the interaction.", "values": [
      {"molecule": "B1", "binding to SCF": "binding to SCF, albeit to a slightly lower degree"},
      {"molecule": "B7", "binding to SCF": "binding to SCF, albeit to a slightly lower degree"},
      {"molecule": "B8", "binding to SCF": "binding to SCF, albeit to a slightly lower degree"}
    ]},
    {"molecular_target": "T2, SCF", "experiment": "Octet: binding of CD117 D1-2-3 variants to SCF", "conditions": "CD117 D1-2-3 constructs; steady state", "protocol": "as §2, §3", "values": [
      {"molecule": "B1", "KD increase of SCF binding compared to wild type CD117": "less than three-fold; also recorded: less than four-fold"},
      {"molecule": "B8", "KD increase of SCF binding compared to wild type CD117": "less than three-fold; also recorded: less than four-fold"},
      {"molecule": "B5", "KD increase of SCF binding compared to wild type CD117": "less than three-fold; also recorded: less than four-fold"}
    ]}
  ]
}
